Substrate in this series: CCCCCCCCCCCCCCCC(=O)Oc1ccc([N+](=O)[O-])cc1
Put plainly: p-nitrophenol release, Lineweaver-Burk. It is filed as biochemical, Rhizopus microsporus. The following applies: emulsified substrate, 40°C, pH 8.5, printed Km unit is a misprint, printed kcat/Km 6.22 × 10^4 M^-1 s^-1 implies mM. The text has this:
p-nitrophenol release, Lineweaver-Burk on r27RCL

B1: r27RCL (Rhizopus microsporus var. chinensis) (protein)
chain: DTETVGGMTLDLPENPPPIPATSTAPSSDSGEVVTATAAQIKELTNYAGVAATAYCRSVVPGTKWDCKQCLKYVPDGKLIKTFTSLLTDTNGFILRSDAQKTIYVTFRGTNSFRSAITDMVFTFTDYSPVKGAKVHAGFLSSYNQVVKDYFPVVQDQLTAYPDYKVIVTGHSLGGAQALLAGMDLYQREKRLSPKNLSIYTVGCPRVGNNAFAYYVDSTGIPFHRTVHKRDIVPHVPPQAFGYLHPGVESWIKEDPADVQICTSNIETKQCSNSIVPFTSIADHLTYFGINEGSCL
notes: proRCL gene in pPIC9K, secreted from Pichia pastoris GS115, purified on SP-Sepharose and Phenyl-Sepharose
Broadly, the kcat is the number of substrate molecules converted per active site and unit of time at saturation. As usually defined, the kcat/Km is the second-order rate constant that governs catalysis at low substrate concentration. Consider B1, for which the kcat amounted to 18.9 s⁻¹ and the kcat/Km was determined as 62200 M⁻¹ s⁻¹.

Source of the values: article PMC3503730, “Enhanced thermostability of a Rhizopus chinensis lipase by in vivo recombination in Pichia pastoris” (Microbial Cell Factories, 2012).
